B1: TcpB (minor pilin, N-terminally truncated, first 28 residues excluded) (natural protein)
chain: GGELMIKSSNAFDVIELSSQIQRYASLSKINNRTNPILKDNKAKEFKDADLKWLKLENCPTAGDVPTTGNNNDLQDQFIACDADYRKGDLSYFGSQFEFSTYVHPSNPEIQRQIKQVVSYFQYRGMERAFIGDAAGYVISEAKKKGFSAQDYRIVLIEPDRVGYFESNAISYEEFIENPSARENFLLKATKDRTLALAVSLAQTGEIAMQRDGSVAFLEDSELCWDTAAGSAKSCLSVRYDTVGNKTELDLKQIDVVSAKGLSFESDGKTKTPVVSTYETFQDGGRAKTINAIECPTGLNNRFAAVVSSFSTAGQNANFSSESAKDSQGTTQKDGSKGPHALLSGISLNWTLTNKVWDVTASIGIESGILPTSGIDSGSLLRNPKSLSFIAFQWCEN

Test in all cases: ITC
Background: Isothermal titration calorimetry measures the heat released or taken up as one component is titrated into another.

For assay [1], the target named is TcpF (1–10) peptide (Vibrio cholerae, UniProt P0C6Q5 21-30).
For assay [2], the target named is TcpF (1–20) peptide (Vibrio cholerae, UniProt P0C6Q5 21-40).
The target in assay [3] is B1.

By Kd is commonly meant the free concentration of one partner at which half of the binding sites on the other are occupied at equilibrium, for simple one-to-one binding. A lower Kd goes with a tighter complex. Regarding B1, the Kd in assay [1] stood at 506 µM; in assay [2] it was 1.7 µM.
For the molecule FNDNYSSTSTVYATS [TcpF (1–15) peptide], in assay [3], binding was put at a Kd of 3 µM.

For the origin of these results see PMC9565799 (2022).
